Holding throughout (settings): both partners purified
The target of assay [1] is T1, biotinylated WT importin β-Avitag (pKW1982; pK1099) (human, UniProt Q14974 1-876, biotin on the Avitag (co-expressed biotin ligase, 100 µM D-biotin)).
T1 construct: importin β (KPNB1), human, wild type; called full-length in the results of the bead halo assay; Immobilised on neutravidin beads by the biotinylated Avitag; also called biotinylated importin β; full-length importin β-coated beads; source: E. coli BL21DE3 co-transfected with pAC-biotin ligase, purified (Ni-NTA)
T1 sequence (Q14974 whole entry): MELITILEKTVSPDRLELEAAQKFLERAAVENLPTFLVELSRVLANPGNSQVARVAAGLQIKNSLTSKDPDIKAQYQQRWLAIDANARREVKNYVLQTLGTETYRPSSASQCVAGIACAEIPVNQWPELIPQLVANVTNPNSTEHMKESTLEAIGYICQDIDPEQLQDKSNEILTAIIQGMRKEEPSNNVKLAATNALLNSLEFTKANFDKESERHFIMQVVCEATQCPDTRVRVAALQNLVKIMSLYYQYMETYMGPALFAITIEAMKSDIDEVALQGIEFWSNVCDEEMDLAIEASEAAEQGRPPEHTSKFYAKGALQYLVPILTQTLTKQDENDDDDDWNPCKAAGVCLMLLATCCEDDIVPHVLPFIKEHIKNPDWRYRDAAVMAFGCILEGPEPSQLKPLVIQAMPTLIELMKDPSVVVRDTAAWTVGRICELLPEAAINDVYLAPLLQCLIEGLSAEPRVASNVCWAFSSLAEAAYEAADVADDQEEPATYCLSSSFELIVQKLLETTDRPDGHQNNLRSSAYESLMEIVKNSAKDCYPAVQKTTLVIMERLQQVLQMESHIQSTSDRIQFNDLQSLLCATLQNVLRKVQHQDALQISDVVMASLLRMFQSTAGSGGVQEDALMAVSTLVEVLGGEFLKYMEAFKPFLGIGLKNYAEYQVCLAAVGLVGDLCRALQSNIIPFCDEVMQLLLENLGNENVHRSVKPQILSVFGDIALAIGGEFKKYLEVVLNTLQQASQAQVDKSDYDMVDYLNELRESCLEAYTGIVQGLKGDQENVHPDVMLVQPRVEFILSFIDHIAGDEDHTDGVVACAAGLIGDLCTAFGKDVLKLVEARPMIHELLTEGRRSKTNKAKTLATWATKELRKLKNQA
Description: bead halo assay; biotinylated bait (importin β-Avitag or BSA) on neutravidin beads; fluorescent prey (AF488-DPR 200 nM, Rango) in binding buffer (20 mM HEPES pH 7.4, 150 mM KOAc, 2 mM Mg(OAc)2, 1 mM DTT, 0.1% Tween-20) with EHBN; room temperature, at least 30 min; confocal rim vs. background ratio.

For assay [2], the target named is T2, GST-tagged S. cerevisiae Nup100(1-307) (S. cerevisiae, UniProt Q02629 1-307).
T2 construct: Nup100, S. cerevisiae, residues 1-307 (GLFG domain fragment); Bait on glutathione beads; also called FG-domains of Nup100; Nup100 fragments; source: E. coli T7 Shuffle, purified (glutathione-sepharose)
T2 sequence (Q02629 1-307): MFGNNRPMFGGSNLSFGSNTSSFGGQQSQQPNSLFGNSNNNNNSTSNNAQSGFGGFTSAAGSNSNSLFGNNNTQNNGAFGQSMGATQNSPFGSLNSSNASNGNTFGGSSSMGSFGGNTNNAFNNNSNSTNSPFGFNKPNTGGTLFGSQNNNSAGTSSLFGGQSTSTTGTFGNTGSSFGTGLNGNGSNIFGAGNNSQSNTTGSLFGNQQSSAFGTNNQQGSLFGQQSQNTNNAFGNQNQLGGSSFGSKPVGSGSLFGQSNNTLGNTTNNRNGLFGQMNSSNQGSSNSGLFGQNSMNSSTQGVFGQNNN
Briefly: bead halo assay; GST-fusion yeast FG- and GLFG-domain baits on glutathione beads; AF488-labeled DPRs in binding buffer, without added importin β; rim vs. background ratio against the Nup116 F>A mutant.

Assay [3] concerns the target T3, GST-tagged S. cerevisiae Nup100(1-610) (S. cerevisiae, UniProt Q02629 1-610).
T3 construct: Nup100, S. cerevisiae, residues 1-610 (GLFG domain fragment); Bait on glutathione beads; also called FG-domains of Nup100; Nup100 fragments; source: E. coli T7 Shuffle, purified (glutathione-sepharose)
Described as above.

The target in assay [4] is T4, full length human importin β (KPNB1), expressed from pET30a-WT Importin β (pKW485) (human, UniProt Q14974 1-876).
T4 construct: importin β (KPNB1), human, wild type, full length; also called unlabeled importin β
T4 sequence (Q14974 whole entry): as the sequence (Q14974 whole entry) above
Briefly: FRET or BRET; displacement of importin β from the Rango FRET sensor in solution: 20 nM Rango + 50 nM importin β in TBS pH 7.4, 0.005% Tween-20, increasing concentrations of DPR 10-mers or ZZ-RanQ69L-GTP; acceptor/donor emission ratio, fit to one-site binding model.

No end group written: not given here.

T3 sequence (Q02629 1-610): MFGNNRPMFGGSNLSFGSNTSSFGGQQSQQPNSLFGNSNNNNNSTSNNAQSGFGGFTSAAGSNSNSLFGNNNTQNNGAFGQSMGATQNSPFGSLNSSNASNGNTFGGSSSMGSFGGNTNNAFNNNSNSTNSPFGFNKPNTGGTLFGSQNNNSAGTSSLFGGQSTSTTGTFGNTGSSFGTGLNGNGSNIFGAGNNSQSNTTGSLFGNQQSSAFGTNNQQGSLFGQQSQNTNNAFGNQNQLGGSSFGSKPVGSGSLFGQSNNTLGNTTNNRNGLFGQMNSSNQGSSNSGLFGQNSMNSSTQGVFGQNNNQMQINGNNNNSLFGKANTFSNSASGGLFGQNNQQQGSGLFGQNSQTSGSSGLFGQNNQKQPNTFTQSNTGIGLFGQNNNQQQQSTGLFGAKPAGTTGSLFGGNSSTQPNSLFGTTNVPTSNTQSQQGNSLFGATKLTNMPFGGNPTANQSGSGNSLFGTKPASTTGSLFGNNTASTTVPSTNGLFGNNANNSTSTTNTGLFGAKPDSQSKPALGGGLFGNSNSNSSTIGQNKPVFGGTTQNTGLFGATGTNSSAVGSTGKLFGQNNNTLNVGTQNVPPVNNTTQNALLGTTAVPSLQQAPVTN

B1: AF488-labeled GR10 (peptide)
peptide: GRGRGRGRGRGRGRGRGRGRKC(Alexa Fluor 488 C5‑maleimide)
notes: C9orf72 poly-GR dipeptide repeat, ten repeats, with C-terminal K and C; also called AF488-GR10; AF488-labeled R-DPR; source: synthetic peptide (Genscript)
As for B1, the “halo intensity (rim vs. background) against control beads” value in assay [1] was about 2 fold. The binding result in assay [2] and in assay [3] was “binds” each time.

B2: PR10, synthetic poly-proline-arginine 10-mer dipeptide repeat protein with C-terminal lysine and cysteine (peptide)
peptide: PRPRPRPRPRPRPRPRPRPRKC
notes: C9orf72 poly-PR dipeptide repeat, ten repeats, with C-terminal K (solubility) and C (labelling); Unlabelled peptide; The C-terminal KC was added by the authors; also called R-DPR; source: synthetic peptide (Genscript; 21st Century Biochemicals)
Consider B2, for which, in assay [4], the binding result was “binds”.

B3: GR10, synthetic poly-glycine-arginine 10-mer dipeptide repeat protein with C-terminal lysine and cysteine (peptide)
peptide: GRGRGRGRGRGRGRGRGRGRKC
notes: C9orf72 poly-GR dipeptide repeat, ten repeats, with C-terminal K (solubility) and C (labelling); Unlabelled peptide; The C-terminal KC was added by the authors; also called poly-GR; R-DPR; source: synthetic peptide (Genscript; 21st Century Biochemicals)
B3: in assay [4], the binding result was “binds”.

B4: AF488-labeled PR10 (peptide)
peptide: PRPRPRPRPRPRPRPRPRPRKC(Alexa Fluor 488 C5‑maleimide)
notes: C9orf72 poly-PR dipeptide repeat, ten repeats, with C-terminal K and C; also called AF488-PR10; AF488-labeled R-DPR; source: synthetic peptide (Genscript)
B4: the “halo intensity (rim vs. background) against control beads” value in assay [1] was about 2 fold. In addition, the binding result in assay [2] and in assay [3] was “binds” each time.
